In patent US10344077 (DUKE UNIVERSITY, dated 2019):

Key:
STUB-1 = biological target: T1, STUB-1 (human, UniProt Q9UNE7 1-303); test: array of human antigens
T1 sequence (looked up): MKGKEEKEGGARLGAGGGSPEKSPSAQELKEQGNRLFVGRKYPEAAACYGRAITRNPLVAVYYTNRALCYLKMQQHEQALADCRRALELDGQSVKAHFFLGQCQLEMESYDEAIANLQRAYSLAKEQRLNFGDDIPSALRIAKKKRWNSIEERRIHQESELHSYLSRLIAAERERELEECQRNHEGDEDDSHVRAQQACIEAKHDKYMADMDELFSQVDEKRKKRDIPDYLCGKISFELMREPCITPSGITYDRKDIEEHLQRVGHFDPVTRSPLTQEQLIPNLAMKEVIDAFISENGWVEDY

SSB [1] = biological target: T2, SSB (UniProt P05455 1-408); test: AtheNA
T2 sequence (looked up): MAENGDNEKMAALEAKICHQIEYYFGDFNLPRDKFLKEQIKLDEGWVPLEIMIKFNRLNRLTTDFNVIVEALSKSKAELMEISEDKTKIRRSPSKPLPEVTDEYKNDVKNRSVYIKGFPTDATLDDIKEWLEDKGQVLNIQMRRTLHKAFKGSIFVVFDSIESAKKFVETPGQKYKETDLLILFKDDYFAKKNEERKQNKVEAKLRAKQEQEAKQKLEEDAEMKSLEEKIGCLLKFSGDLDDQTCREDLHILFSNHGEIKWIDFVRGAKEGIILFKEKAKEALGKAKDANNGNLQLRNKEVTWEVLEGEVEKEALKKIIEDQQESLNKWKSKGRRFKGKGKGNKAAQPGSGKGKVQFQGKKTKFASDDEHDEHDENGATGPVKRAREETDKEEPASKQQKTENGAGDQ
Excerpt: (§1) AtheNA Multi-Lyte ANA Plus Test System is one such assay. This is luminex-based assay, which is also used to screen patient sera.

Scl-70 [2] = biological target: T3, Scl-70 (UniProt P11387 2-765); test: AtheNA
T3 sequence (looked up): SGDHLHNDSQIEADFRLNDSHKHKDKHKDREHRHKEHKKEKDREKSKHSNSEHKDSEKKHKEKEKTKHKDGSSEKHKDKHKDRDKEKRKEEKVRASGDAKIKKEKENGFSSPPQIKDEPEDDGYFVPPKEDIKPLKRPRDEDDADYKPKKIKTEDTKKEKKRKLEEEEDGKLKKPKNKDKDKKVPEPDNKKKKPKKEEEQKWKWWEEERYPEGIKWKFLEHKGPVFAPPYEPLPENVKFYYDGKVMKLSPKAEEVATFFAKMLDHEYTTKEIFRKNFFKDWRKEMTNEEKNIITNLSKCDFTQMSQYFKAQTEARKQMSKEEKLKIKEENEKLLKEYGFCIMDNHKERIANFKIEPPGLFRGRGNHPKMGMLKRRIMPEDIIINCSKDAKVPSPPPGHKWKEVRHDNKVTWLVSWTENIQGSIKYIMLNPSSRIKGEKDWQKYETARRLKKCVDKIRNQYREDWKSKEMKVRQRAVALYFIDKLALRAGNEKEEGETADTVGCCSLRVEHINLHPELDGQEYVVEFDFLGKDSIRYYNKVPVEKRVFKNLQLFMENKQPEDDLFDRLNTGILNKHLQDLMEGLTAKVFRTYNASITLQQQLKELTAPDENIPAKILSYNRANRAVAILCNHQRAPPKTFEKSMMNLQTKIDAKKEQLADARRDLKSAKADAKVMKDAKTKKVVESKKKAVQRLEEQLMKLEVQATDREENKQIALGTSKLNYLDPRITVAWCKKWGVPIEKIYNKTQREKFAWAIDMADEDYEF
Excerpt: as §1

Jo-1 [3] = biological target: T4, Jo-1 (UniProt P12081 2-509); test: AtheNA
T4 sequence (looked up): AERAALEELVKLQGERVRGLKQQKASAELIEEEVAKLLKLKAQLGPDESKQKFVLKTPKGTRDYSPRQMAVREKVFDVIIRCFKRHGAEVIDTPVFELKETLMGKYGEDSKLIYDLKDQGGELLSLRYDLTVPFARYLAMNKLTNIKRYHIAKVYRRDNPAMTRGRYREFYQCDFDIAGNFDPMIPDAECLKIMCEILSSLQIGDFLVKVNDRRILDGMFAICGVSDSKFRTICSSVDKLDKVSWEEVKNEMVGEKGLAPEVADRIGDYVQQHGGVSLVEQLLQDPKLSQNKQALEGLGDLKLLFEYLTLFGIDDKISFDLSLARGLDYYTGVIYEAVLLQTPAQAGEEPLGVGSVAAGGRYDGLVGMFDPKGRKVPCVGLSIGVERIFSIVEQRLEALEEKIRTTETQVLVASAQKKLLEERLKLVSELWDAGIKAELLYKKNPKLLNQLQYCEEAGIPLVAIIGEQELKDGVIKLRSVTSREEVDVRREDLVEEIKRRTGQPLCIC
Excerpt: as §1

Centromere B [4] = biological target: T5, Centromere B (UniProt P07199 2-599); test: AtheNA, Ab 25 ug/ml
T5 construct: also called Cent B
T5 sequence (looked up): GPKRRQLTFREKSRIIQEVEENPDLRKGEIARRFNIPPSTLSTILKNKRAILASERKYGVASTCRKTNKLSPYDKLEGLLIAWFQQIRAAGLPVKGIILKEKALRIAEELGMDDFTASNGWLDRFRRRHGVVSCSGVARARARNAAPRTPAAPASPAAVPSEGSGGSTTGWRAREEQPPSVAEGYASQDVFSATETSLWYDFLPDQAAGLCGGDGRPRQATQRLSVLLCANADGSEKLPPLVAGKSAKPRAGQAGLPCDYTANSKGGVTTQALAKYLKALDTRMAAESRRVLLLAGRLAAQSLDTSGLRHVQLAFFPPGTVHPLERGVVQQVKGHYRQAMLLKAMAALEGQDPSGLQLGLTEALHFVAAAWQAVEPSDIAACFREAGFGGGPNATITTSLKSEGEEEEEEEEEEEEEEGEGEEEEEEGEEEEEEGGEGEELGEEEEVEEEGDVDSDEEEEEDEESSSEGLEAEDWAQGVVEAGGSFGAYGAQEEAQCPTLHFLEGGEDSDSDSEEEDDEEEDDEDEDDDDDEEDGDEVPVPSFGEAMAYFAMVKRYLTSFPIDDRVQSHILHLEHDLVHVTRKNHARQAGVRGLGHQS
Excerpt: as §1

RNP (ribonucleoprotein) [5] = test: AtheNA, Ab 25 ug/ml
Excerpt: as §1

SSB [6] = biological target: T2, SSB; test: AtheNA, Ab 25 ug/ml
Excerpt: as §1

Sm (Smith antigen) [7] = test: AtheNA, Ab 25 ug/ml
Excerpt: as §1

Scl-70 [8] = biological target: T3, Scl-70; test: AtheNA, Ab 25 ug/ml
Excerpt: as §1

Histones [9] = test: AtheNA, Ab 25 ug/ml
Excerpt: as §1

Jo-1 [10] = biological target: T4, Jo-1; test: AtheNA, Ab 25 ug/ml
Excerpt: as §1

SSA [11] = test: AtheNA, Ab 25 ug/ml
Excerpt: as §1

Centromere B [12] = biological target: T5, Centromere B; test: AtheNA, Ab 12.5 ug/ml
Excerpt: as §1

RNP (ribonucleoprotein) [13] = test: AtheNA, Ab 12.5 ug/ml
Excerpt: as §1

SSB [14] = biological target: T2, SSB; test: AtheNA, Ab 12.5 ug/ml
Excerpt: as §1

Sm (Smith antigen) [15] = test: AtheNA, Ab 12.5 ug/ml
Excerpt: as §1

Scl-70 [16] = biological target: T3, Scl-70; test: AtheNA, Ab 12.5 ug/ml
Excerpt: as §1

Histones [17] = test: AtheNA, Ab 12.5 ug/ml
Excerpt: as §1

Jo-1 [18] = biological target: T4, Jo-1; test: AtheNA, Ab 12.5 ug/ml
Excerpt: as §1

SSA [19] = test: AtheNA, Ab 12.5 ug/ml
Excerpt: as §1

Centromere B [20] = biological target: T5, Centromere B; test: AtheNA, Ab 50 ug/ml
Excerpt: as §1

RNP (ribonucleoprotein) [21] = test: AtheNA, Ab 50 ug/ml
Excerpt: as §1

SSB [22] = biological target: T2, SSB; test: AtheNA, Ab 50 ug/ml
Excerpt: as §1

Sm (Smith antigen) [23] = test: AtheNA, Ab 50 ug/ml
Excerpt: as §1

Scl-70 [24] = biological target: T3, Scl-70; test: AtheNA, Ab 50 ug/ml
Excerpt: as §1

Histones [25] = test: AtheNA, Ab 50 ug/ml
Excerpt: as §1

Jo-1 [26] = biological target: T4, Jo-1; test: AtheNA, Ab 50 ug/ml
Excerpt: as §1

SSA [27] = test: AtheNA, Ab 50 ug/ml
Excerpt: as §1

Centromere B [28] = biological target: T5, Centromere B; test: AtheNA, Ab 6.25 ug/ml
Excerpt: as §1

RNP (ribonucleoprotein) [29] = test: AtheNA, Ab 6.25 ug/ml
Excerpt: as §1

SSB [30] = biological target: T2, SSB; test: AtheNA, Ab 6.25 ug/ml
Excerpt: as §1

Sm (Smith antigen) [31] = test: AtheNA, Ab 6.25 ug/ml
Excerpt: as §1

Scl-70 [32] = biological target: T3, Scl-70; test: AtheNA, Ab 6.25 ug/ml
Excerpt: as §1

Histones [33] = test: AtheNA, Ab 6.25 ug/ml
Excerpt: as §1

Jo-1 [34] = biological target: T4, Jo-1; test: AtheNA, Ab 6.25 ug/ml
Excerpt: as §1

SSA [35] = test: AtheNA, Ab 6.25 ug/ml
Excerpt: as §1

B1: CH557 (antibody, V domains shown)
VH: QVRLAQYGGGVKRLGATMTLSCVASGYTFNDYYIHWVRQAPGQGFELLGYIDPANGRPDYAGALRERLSFYRDKSMETLYMDLRSLRYDDTAMYYCVRNVGTAGSLLHYDHWGSGSPVIVSS
VL: EIVLTQSPATLSASPGERVTLTCRASRSVRNNVAWYQHKGGQSPRLLIYDASTRAAGVPARFSGSASGTEFTLAISNLESEDFTVYFCLQYNNWWTFGQGTRVDIK
notes: also called CH557_4A/293i
binding result (STUB-1): no binding | binding result (SSB [1]): no binding (tested: 6.25 ug/ml to 50 ug/ml) | binding result (Scl-70 [2]): no binding (tested: 6.25 ug/ml to 50 ug/ml) | binding result (Jo-1 [3]): no binding (tested: 6.25 ug/ml to 50 ug/ml) | Athena reading (Centromere B [4]): 25 relative luminescence units | Athena reading (RNP (ribonucleoprotein) [5]): 6 relative luminescence units | Athena reading (SSB [6]): 12 relative luminescence units | Athena reading (Sm (Smith antigen) [7]): 6 relative luminescence units | Athena reading (Scl-70 [8]): 4 relative luminescence units | Athena reading (Histones [9]): 8 relative luminescence units | Athena reading (Jo-1 [10]): 2 relative luminescence units | Athena reading (SSA [11]): 4 relative luminescence units | Athena reading (Centromere B [12]): 16 relative luminescence units | Athena reading (RNP (ribonucleoprotein) [13]): 3 relative luminescence units | Athena reading (SSB [14]): 9 relative luminescence units | Athena reading (Sm (Smith antigen) [15]): 6 relative luminescence units | Athena reading (Scl-70 [16]): 3 relative luminescence units | Athena reading (Histones [17]): 6 relative luminescence units | Athena reading (Jo-1 [18]): 5 relative luminescence units | Athena reading (SSA [19]): 3 relative luminescence units | Athena reading (Centromere B [20]): 46 relative luminescence units | Athena reading (RNP (ribonucleoprotein) [21]): 10 relative luminescence units | Athena reading (SSB [22]): 15 relative luminescence units | Athena reading (Sm (Smith antigen) [23]): 8 relative luminescence units | Athena reading (Scl-70 [24]): 6 relative luminescence units | Athena reading (Histones [25]): 16 relative luminescence units | Athena reading (Jo-1 [26]): 10 relative luminescence units | Athena reading (SSA [27]): 6 relative luminescence units | Athena reading (Centromere B [28]): 11 relative luminescence units | Athena reading (RNP (ribonucleoprotein) [29]): 4 relative luminescence units | Athena reading (SSB [30]): 5 relative luminescence units | Athena reading (Sm (Smith antigen) [31]): 4 relative luminescence units | Athena reading (Scl-70 [32]): 3 relative luminescence units | Athena reading (Histones [33]): 4 relative luminescence units | Athena reading (Jo-1 [34]): 5 relative luminescence units | Athena reading (SSA [35]): 4 relative luminescence units
